Drawing on patent US20250011363A1, “OPTIMIZED SHORTENED PEPTIDE THAT BINDS TO ACETYLCHOLINE RECEPTOR, AND USE THEREOF” (SKINMED CO., LTD., priority 2021, published 2025), this text covers Binding affinity for 134 substances.

The target of this assay is acetylcholine receptor (Homo sapiens, UniProt P02708). Nature of the assay: SPR binding affinity (RU) of optimized 5mer/6mer/7mer peptides, Examples 6-7. Particulars: SPR, Resonance Units; peptides tested at 10 μM; 6mer-2 Bottom sequence. In short, it runs like this:
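Using surface plasmon resonance, binding to the acetylcholine receptor was measured for each sequence at a single 10 μM concentration. Values are response units.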
On the technique in general: Surface plasmon resonance follows binding to a sensor surface in real time, without labels.

acetylcholine receptor, sequence (P02708 21-457): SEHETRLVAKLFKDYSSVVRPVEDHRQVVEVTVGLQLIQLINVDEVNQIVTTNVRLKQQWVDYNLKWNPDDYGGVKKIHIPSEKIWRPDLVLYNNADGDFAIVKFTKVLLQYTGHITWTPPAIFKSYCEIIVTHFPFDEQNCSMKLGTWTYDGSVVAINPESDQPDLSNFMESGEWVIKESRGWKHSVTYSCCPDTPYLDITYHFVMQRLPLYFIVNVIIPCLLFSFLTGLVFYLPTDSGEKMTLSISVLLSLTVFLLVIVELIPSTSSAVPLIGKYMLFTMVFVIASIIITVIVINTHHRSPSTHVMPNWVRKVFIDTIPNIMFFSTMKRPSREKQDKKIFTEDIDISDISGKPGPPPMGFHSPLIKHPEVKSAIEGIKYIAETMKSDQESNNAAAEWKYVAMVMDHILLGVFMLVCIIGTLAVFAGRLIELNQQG

As for 6mer-2-827 (KYAEKK), the Binding affinity was 13 Ru. Turning to 6mer-2-828 (RMKKKR), the Binding affinity turned out to be 32 Ru.

As for 6mer-2-829 (KKKIRR), the Binding affinity is on record as 22 Ru. In the case of 6mer-2-830 (RMKFKR) it was 21 Ru; in that of 6mer-2-831 (RMTWRK), 29 Ru.

Regarding 6mer-2-832 (KYHNRR), the Binding affinity was found to be 32 Ru. In the case of 6mer-2-833 (RKTWRR) it was 14 Ru; in that of 6mer-2-834 (RFWWKR), 28 Ru; in that of 6mer-2-835 (RHCGKR), 20 Ru. With 6mer-2-836 (KNTMKR) the figure was 26 Ru; with 6mer-2-837 (REDFRR), 32 Ru; with 6mer-2-838 (RCTVRK), 13 Ru.

With 6mer-2-839 (KNHNRR), the Binding affinity amounted to 32 Ru. With 6mer-2-840 (KDWDRK) the figure was 15 Ru; with 6mer-2-841 (KPNHRK), 33 Ru. 6mer-2-842 (KPKMRR): the Binding affinity is given as 22 Ru. In the case of 6mer-2-843 (KAPDRK) it was 33 Ru; in that of 6mer-2-844 (RDPKKK), 22 Ru. In the case of 6mer-2-845 (KMKEKR) it was 14 Ru; in that of 6mer-2-846 (RFSFKR), 30 Ru. For 6mer-2-847 (RYCHKR), the Binding affinity is on record as 22 Ru. As for 6mer-2-848 (RMTERK), the Binding affinity came out at 29 Ru. Turning to 6mer-2-849 (RNTAKK), the Binding affinity turned out to be 13 Ru.

Turning to 6mer-2-850 (KTSMKR), the Binding affinity was found to be 16 Ru. For 6mer-2-851 (KFWWRR), the Binding affinity is reported as 19 Ru. Consider 6mer-2-852 (RNCERR), for which the Binding affinity is 28 Ru. Take 6mer-2-853 (KHTGRR): the Binding affinity is 29 Ru. Consider 6mer-2-854 (RCNWKR), for which the Binding affinity is listed as 23 Ru. 6mer-2-855 (REMIKR): the Binding affinity is recorded as 19 Ru. In the case of 6mer-2-856 (KEPMRR) it was 14 Ru. In the case of 6mer-2-857 (KHTEKK) it was 20 Ru; in that of 6mer-2-858 (KEEHRR), 30 Ru; in that of 6mer-2-859 (RMDFRK), 21 Ru. In the case of 6mer-2-860 (KPNFRR) it was 31 Ru; in that of 6mer-2-861 (KDTDRK), 21 Ru. In the case of 6mer-2-862 (RHTFKK), the Binding affinity was found to be 29 Ru. In the case of 6mer-2-863 (RKHWRR) it was 17 Ru; in that of 6mer-2-864 (RKCAKK), 12 Ru. With 6mer-2-865 (RHCNRK) the figure was 16 Ru; with 6mer-2-866 (RDNPKK), 24 Ru; with 6mer-2-867 (KYWEKK), 32 Ru. In the case of 6mer-2-868 (RTPNRR) it was 30 Ru; in that of 6mer-2-869 (RHDHKR), 18 Ru; in that of 6mer-2-870 (KMTEKK), 21 Ru. Turning to 6mer-2-871 (REMPKR), the Binding affinity was 31 Ru. With 6mer-2-872 (KTHFRK) the figure was 28 Ru; with 6mer-2-873 (KNWGRR), 11 Ru. In the case of 6mer-2-874 (KIHFRK) it was 33 Ru; in that of 6mer-2-875 (RIDHRK), 13 Ru. With 6mer-2-876 (KEDNKR), the Binding affinity came to 17 Ru.

For 6mer-2-877 (KPPERR), the Binding affinity was determined as 17 Ru. As for 6mer-2-878 (KETVRR), the Binding affinity is 24 Ru. With 6mer-2-879 (RTMDRR) the figure was 19 Ru; with 6mer-2-880 (RTHHKK), 12 Ru.

As to 6mer-2-881 (KDTEKK), the Binding affinity is given as 33 Ru.

6mer-2-882 (RTPAKR): the Binding affinity turned out to be 15 Ru.

For 6mer-2-883 (RTNEKR), the Binding affinity is listed as 22 Ru. In the case of 6mer-2-884 (KMTMKK) it was 11 Ru; in that of 6mer-2-885 (KCMVRR), 17 Ru; in that of 6mer-2-886 (KTWVRR), 13 Ru. In the case of 6mer-2-887 (RCPKKR) it was 18 Ru; in that of 6mer-2-888 (RIAKRK), 17 Ru. With 6mer-2-889 (REWDKK) the figure was 12 Ru; with 6mer-2-890 (RDNPKR), 30 Ru; with 6mer-2-891 (RTSIRK), 28 Ru. Turning to 6mer-2-892 (KDENRK), the Binding affinity worked out at 27 Ru. As for 6mer-2-893 (REHVRR), the Binding affinity turned out to be 17 Ru. With 6mer-2-894 (RFHWRR), the Binding affinity amounted to 22 Ru.

In the case of 6mer-2-895 (KYMAKK), the Binding affinity is 28 Ru.

On to 6mer-2-896 (RTCARR), for which the Binding affinity is reported as 30 Ru. In the case of 6mer-2-897 (RPAHKK) it was 17 Ru; in that of 6mer-2-898 (KKKDKK), 16 Ru; in that of 6mer-2-899 (KKMVKR), 13 Ru. In the case of 6mer-2-900 (RFSAKK) it was 11 Ru; in that of 6mer-2-901 (RYWDRK), 34 Ru; in that of 6mer-2-902 (KPDVRK), 26 Ru.

For 6mer-2-903 (KKNPKK), the Binding affinity worked out at 40 Ru.

Take 6mer-2-904 (KCCFKK): the Binding affinity turned out to be 30 Ru. In the case of 6mer-2-905 (RPKERR) it was 26 Ru; in that of 6mer-2-906 (KYCDKK), 40 Ru. Regarding 6mer-2-907 (RTMNRR), the Binding affinity is 25 Ru. With 6mer-2-908 (KYKKKR) the figure was 33 Ru. In the case of 6mer-2-909 (RCNPRR) it was 42 Ru; in that of 6mer-2-910 (RHEHRR), 21 Ru.

On to 6mer-2-911 (KMSGKR), for which the Binding affinity was found to be 21 Ru. As for 6mer-2-912 (RAPIRR), the Binding affinity is listed as 27 Ru. As for 6mer-2-913 (KFKNRR), the Binding affinity came out at 25 Ru. Turning to 6mer-2-914 (KDDIKK), the Binding affinity stood at 25 Ru. In the case of 6mer-2-915 (KNCWKR), the Binding affinity is recorded as 29 Ru. In the case of 6mer-2-916 (KTTEKR) it was 22 Ru; in that of 6mer-2-917 (RFCWRK), 23 Ru; in that of 6mer-2-918 (KNWMRK), 35 Ru. With 6mer-2-919 (KAKHKR) the figure was 27 Ru; with 6mer-2-920 (RMTIKK), 26 Ru; with 6mer-2-921 (RPKAKK), 22 Ru.

Regarding 6mer-2-922 (KDNVRR), the Binding affinity is given as 41 Ru.

Regarding 6mer-2-923 (RCCAKK), the Binding affinity is 33 Ru. With 6mer-2-924 (RFDHKK) the figure was 28 Ru; with 6mer-2-925 (RASVKR), 23 Ru.

As for 6mer-2-926 (RPTVKR), the Binding affinity came to 31 Ru. As for 6mer-2-927 (RFNPRK), the Binding affinity worked out at 39 Ru. In the case of 6mer-2-928 (KFCIRR) it was 28 Ru. In the case of 6mer-2-929 (KNHMRK) it was 26 Ru; in that of 6mer-2-930 (RTWIKR), 37 Ru. In the case of 6mer-2-931 (RYCFKR) it was 29 Ru; in that of 6mer-2-932 (RIPWRR), 35 Ru; in that of 6mer-2-933 (RYSMKR), 34 Ru. Take 6mer-2-934 (KYKDRR): the Binding affinity came out at 26 Ru. In the case of 6mer-2-935 (KKCNKK) it was 22 Ru; in that of 6mer-2-936 (KPPAKK), 21 Ru. With 6mer-2-937 (RASHRR) the figure was 35 Ru. In the case of 6mer-2-938 (RIEHKR) it was 40 Ru. With 6mer-2-939 (KKCARR), the Binding affinity came out at 22 Ru.

Consider 6mer-2-940 (RNENKK), for which the Binding affinity amounted to 41 Ru. With 6mer-2-941 (RDEDKR) the figure was 33 Ru; with 6mer-2-942 (KTDKRK), 22 Ru; with 6mer-2-943 (KIDHRR), 41 Ru.

In the case of 6mer-2-944 (KPEDKK), the Binding affinity amounted to 35 Ru. Turning to 6mer-2-945 (KKCERK), the Binding affinity is recorded as 42 Ru. In the case of 6mer-2-946 (KPCEKK) it was 21 Ru; in that of 6mer-2-947 (KTNWRK), 41 Ru. With 6mer-2-948 (RPPFRR) the figure was 28 Ru; with 6mer-2-949 (RPNARR), 39 Ru. For 6mer-2-950 (KYNKRR), the Binding affinity is listed as 26 Ru. With 6mer-2-951 (RADEKK) the figure was 42 Ru; with 6mer-2-952 (KYWGRR), 24 Ru. In the case of 6mer-2-953 (KESVKK) it was 25 Ru; in that of 6mer-2-954 (KCTIRK), 32 Ru. In the case of 6mer-2-955 (RMPERR) it was 29 Ru; in that of 6mer-2-956 (KFCWRR), 28 Ru. Regarding 6mer-2-957 (RDTHRR), the Binding affinity worked out at 40 Ru. In the case of 6mer-2-958 (KFKARK) it was 28 Ru.

As for 6mer-2-959 (RTNARK), the Binding affinity amounted to 35 Ru. With 6mer-2-960 (RDCVKR) the figure was 29 Ru.
